Here are results for eleven molecules from patent publication US20250327097A1, “ORGANISMS PRODUCING LESS CROTONIC ACID” (Global Bioenergies, priority 2021, published 2025).

To fix the notation:
B1: N388M-L432F-L434W-S436N (protein)
chain: MFLKSLREQINLLKRQGDLRIINRPVDSYLEAAAIIRRSTETKAPVPLMTNIKGYPGCSIVGGLAALSSNPEYPLSRVAMSLGLSTTASAQSIVQYLIDGLKKTPYLPVEIDSNSAPCKQNILRGEDASLAHFPIPQVHQHDGNRYVNTWGVFIVESPDGQWCNWSIQRVQYLNDRQMIALVFPSQHISDIWEEWVKIGKPMPYALVQGCEPIVPYIAGLPLLERNVNEAEYIGALYGKGIEVVKCETHDLRVPASSEVVIEGYFAITREGVEGPFGEFAGYIPNENSLQPILSITAISWQDDPIWPVVAEGKPVDEYHTCSGIGDAAAIQNVLLTANLPVSFVWVPLYSACHLMIVSINRHWRQTHPDLTSEQLTKKVGDVIHQTRMSIKLPKIVVLDDDVDPADTESLLWALATRIHPERKRYFYESCIFPWLNCYSEEERHNRKGKRVIIDALLPENHGAISSFDYAYPDDIKQRVLMHWETDFSHD
B2: C430S-L432F-L434W-S436N (protein)
chain: MFLKSLREQINLLKRQGDLRIINRPVDSYLEAAAIIRRSTETKAPVPLMTNIKGYPGCSIVGGLAALSSNPEYPLSRVAMSLGLSTTASAQSIVQYLIDGLKKTPYLPVEIDSNSAPCKQNILRGEDASLAHFPIPQVHQHDGNRYVNTWGVFIVESPDGQWCNWSIQRVQYLNDRQMIALVFPSQHISDIWEEWVKIGKPMPYALVQGCEPIVPYIAGLPLLERNVNEAEYIGALYGKGIEVVKCETHDLRVPASSEVVIEGYFAITREGVEGPFGEFAGYIPNENSLQPILSITAISWQDDPIWPVVAEGKPVDEYHTCSGIGDAAAIQNVLLTANLPVSFVWVPLYSACHLMIVSINRHWRQTHPDLTSEQLTKKVGDVIHQTRNSIKLPKIVVLDDDVDPADTESLLWALATRIHPERKRYFYESSIFPWLNCYSEEERHNRKGKRVIIDALLPENHGAISSFDYAYPDDIKQRVLMHWETDFSHD
B3: N388M-C430S-L432F-L434W-S436N (protein)
chain: MFLKSLREQINLLKRQGDLRIINRPVDSYLEAAAIIRRSTETKAPVPLMTNIKGYPGCSIVGGLAALSSNPEYPLSRVAMSLGLSTTASAQSIVQYLIDGLKKTPYLPVEIDSNSAPCKQNILRGEDASLAHFPIPQVHQHDGNRYVNTWGVFIVESPDGQWCNWSIQRVQYLNDRQMIALVFPSQHISDIWEEWVKIGKPMPYALVQGCEPIVPYIAGLPLLERNVNEAEYIGALYGKGIEVVKCETHDLRVPASSEVVIEGYFAITREGVEGPFGEFAGYIPNENSLQPILSITAISWQDDPIWPVVAEGKPVDEYHTCSGIGDAAAIQNVLLTANLPVSFVWVPLYSACHLMIVSINRHWRQTHPDLTSEQLTKKVGDVIHQTRMSIKLPKIVVLDDDVDPADTESLLWALATRIHPERKRYFYESSIFPWLNCYSEEERHNRKGKRVIIDALLPENHGAISSFDYAYPDDIKQRVLMHWETDFSHD
B4: N388M-K394R-L432F-L434W-S436A (protein)
chain: MFLKSLREQINLLKRQGDLRIINRPVDSYLEAAAIIRRSTETKAPVPLMTNIKGYPGCSIVGGLAALSSNPEYPLSRVAMSLGLSTTASAQSIVQYLIDGLKKTPYLPVEIDSNSAPCKQNILRGEDASLAHFPIPQVHQHDGNRYVNTWGVFIVESPDGQWCNWSIQRVQYLNDRQMIALVFPSQHISDIWEEWVKIGKPMPYALVQGCEPIVPYIAGLPLLERNVNEAEYIGALYGKGIEVVKCETHDLRVPASSEVVIEGYFAITREGVEGPFGEFAGYIPNENSLQPILSITAISWQDDPIWPVVAEGKPVDEYHTCSGIGDAAAIQNVLLTANLPVSFVWVPLYSACHLMIVSINRHWRQTHPDLTSEQLTKKVGDVIHQTRMSIKLPRIVVLDDDVDPADTESLLWALATRIHPERKRYFYESCIFPWLACYSEEERHNRKGKRVIIDALLPENHGAISSFDYAYPDDIKQRVLMHWETDFSHD
B5: N388M-C430P-L432F-L434W-S436A (protein)
chain: MFLKSLREQINLLKRQGDLRIINRPVDSYLEAAAIIRRSTETKAPVPLMTNIKGYPGCSIVGGLAALSSNPEYPLSRVAMSLGLSTTASAQSIVQYLIDGLKKTPYLPVEIDSNSAPCKQNILRGEDASLAHFPIPQVHQHDGNRYVNTWGVFIVESPDGQWCNWSIQRVQYLNDRQMIALVFPSQHISDIWEEWVKIGKPMPYALVQGCEPIVPYIAGLPLLERNVNEAEYIGALYGKGIEVVKCETHDLRVPASSEVVIEGYFAITREGVEGPFGEFAGYIPNENSLQPILSITAISWQDDPIWPVVAEGKPVDEYHTCSGIGDAAAIQNVLLTANLPVSFVWVPLYSACHLMIVSINRHWRQTHPDLTSEQLTKKVGDVIHQTRMSIKLPKIVVLDDDVDPADTESLLWALATRIHPERKRYFYESPIFPWLACYSEEERHNRKGKRVIIDALLPENHGAISSFDYAYPDDIKQRVLMHWETDFSHD
B6: K394R-C430S-L432F-L434W-S436A (protein)
chain: MFLKSLREQINLLKRQGDLRIINRPVDSYLEAAAIIRRSTETKAPVPLMTNIKGYPGCSIVGGLAALSSNPEYPLSRVAMSLGLSTTASAQSIVQYLIDGLKKTPYLPVEIDSNSAPCKQNILRGEDASLAHFPIPQVHQHDGNRYVNTWGVFIVESPDGQWCNWSIQRVQYLNDRQMIALVFPSQHISDIWEEWVKIGKPMPYALVQGCEPIVPYIAGLPLLERNVNEAEYIGALYGKGIEVVKCETHDLRVPASSEVVIEGYFAITREGVEGPFGEFAGYIPNENSLQPILSITAISWQDDPIWPVVAEGKPVDEYHTCSGIGDAAAIQNVLLTANLPVSFVWVPLYSACHLMIVSINRHWRQTHPDLTSEQLTKKVGDVIHQTRNSIKLPRIVVLDDDVDPADTESLLWALATRIHPERKRYFYESSIFPWLACYSEEERHNRKGKRVIIDALLPENHGAISSFDYAYPDDIKQRVLMHWETDFSHD
B7: K394R-L432F-L434W-S436N (protein)
chain: MFLKSLREQINLLKRQGDLRIINRPVDSYLEAAAIIRRSTETKAPVPLMTNIKGYPGCSIVGGLAALSSNPEYPLSRVAMSLGLSTTASAQSIVQYLIDGLKKTPYLPVEIDSNSAPCKQNILRGEDASLAHFPIPQVHQHDGNRYVNTWGVFIVESPDGQWCNWSIQRVQYLNDRQMIALVFPSQHISDIWEEWVKIGKPMPYALVQGCEPIVPYIAGLPLLERNVNEAEYIGALYGKGIEVVKCETHDLRVPASSEVVIEGYFAITREGVEGPFGEFAGYIPNENSLQPILSITAISWQDDPIWPVVAEGKPVDEYHTCSGIGDAAAIQNVLLTANLPVSFVWVPLYSACHLMIVSINRHWRQTHPDLTSEQLTKKVGDVIHQTRNSIKLPRIVVLDDDVDPADTESLLWALATRIHPERKRYFYESCIFPWLNCYSEEERHNRKGKRVIIDALLPENHGAISSFDYAYPDDIKQRVLMHWETDFSHD
B8: N388M-C430P-L432F-L434W-S436N (protein)
chain: MFLKSLREQINLLKRQGDLRIINRPVDSYLEAAAIIRRSTETKAPVPLMTNIKGYPGCSIVGGLAALSSNPEYPLSRVAMSLGLSTTASAQSIVQYLIDGLKKTPYLPVEIDSNSAPCKQNILRGEDASLAHFPIPQVHQHDGNRYVNTWGVFIVESPDGQWCNWSIQRVQYLNDRQMIALVFPSQHISDIWEEWVKIGKPMPYALVQGCEPIVPYIAGLPLLERNVNEAEYIGALYGKGIEVVKCETHDLRVPASSEVVIEGYFAITREGVEGPFGEFAGYIPNENSLQPILSITAISWQDDPIWPVVAEGKPVDEYHTCSGIGDAAAIQNVLLTANLPVSFVWVPLYSACHLMIVSINRHWRQTHPDLTSEQLTKKVGDVIHQTRMSIKLPKIVVLDDDVDPADTESLLWALATRIHPERKRYFYESPIFPWLNCYSEEERHNRKGKRVIIDALLPENHGAISSFDYAYPDDIKQRVLMHWETDFSHD
B9: K394R-C430P-L432F-L434W-S436A (protein)
chain: MFLKSLREQINLLKRQGDLRIINRPVDSYLEAAAIIRRSTETKAPVPLMTNIKGYPGCSIVGGLAALSSNPEYPLSRVAMSLGLSTTASAQSIVQYLIDGLKKTPYLPVEIDSNSAPCKQNILRGEDASLAHFPIPQVHQHDGNRYVNTWGVFIVESPDGQWCNWSIQRVQYLNDRQMIALVFPSQHISDIWEEWVKIGKPMPYALVQGCEPIVPYIAGLPLLERNVNEAEYIGALYGKGIEVVKCETHDLRVPASSEVVIEGYFAITREGVEGPFGEFAGYIPNENSLQPILSITAISWQDDPIWPVVAEGKPVDEYHTCSGIGDAAAIQNVLLTANLPVSFVWVPLYSACHLMIVSINRHWRQTHPDLTSEQLTKKVGDVIHQTRNSIKLPRIVVLDDDVDPADTESLLWALATRIHPERKRYFYESPIFPWLACYSEEERHNRKGKRVIIDALLPENHGAISSFDYAYPDDIKQRVLMHWETDFSHD
B10: C430P-L432F-L434W-S436N (protein)
chain: MFLKSLREQINLLKRQGDLRIINRPVDSYLEAAAIIRRSTETKAPVPLMTNIKGYPGCSIVGGLAALSSNPEYPLSRVAMSLGLSTTASAQSIVQYLIDGLKKTPYLPVEIDSNSAPCKQNILRGEDASLAHFPIPQVHQHDGNRYVNTWGVFIVESPDGQWCNWSIQRVQYLNDRQMIALVFPSQHISDIWEEWVKIGKPMPYALVQGCEPIVPYIAGLPLLERNVNEAEYIGALYGKGIEVVKCETHDLRVPASSEVVIEGYFAITREGVEGPFGEFAGYIPNENSLQPILSITAISWQDDPIWPVVAEGKPVDEYHTCSGIGDAAAIQNVLLTANLPVSFVWVPLYSACHLMIVSINRHWRQTHPDLTSEQLTKKVGDVIHQTRNSIKLPKIVVLDDDVDPADTESLLWALATRIHPERKRYFYESPIFPWLNCYSEEERHNRKGKRVIIDALLPENHGAISSFDYAYPDDIKQRVLMHWETDFSHD
B11: N388M-C430S-L432F-L434W-S436A (protein)
chain: MFLKSLREQINLLKRQGDLRIINRPVDSYLEAAAIIRRSTETKAPVPLMTNIKGYPGCSIVGGLAALSSNPEYPLSRVAMSLGLSTTASAQSIVQYLIDGLKKTPYLPVEIDSNSAPCKQNILRGEDASLAHFPIPQVHQHDGNRYVNTWGVFIVESPDGQWCNWSIQRVQYLNDRQMIALVFPSQHISDIWEEWVKIGKPMPYALVQGCEPIVPYIAGLPLLERNVNEAEYIGALYGKGIEVVKCETHDLRVPASSEVVIEGYFAITREGVEGPFGEFAGYIPNENSLQPILSITAISWQDDPIWPVVAEGKPVDEYHTCSGIGDAAAIQNVLLTANLPVSFVWVPLYSACHLMIVSINRHWRQTHPDLTSEQLTKKVGDVIHQTRMSIKLPKIVVLDDDVDPADTESLLWALATRIHPERKRYFYESSIFPWLACYSEEERHNRKGKRVIIDALLPENHGAISSFDYAYPDDIKQRVLMHWETDFSHD

The test system of this test is 3-methylcrotonic acid. The format is biochemical, Yersinia frederiksenii. On the set-up: key: “+” representing a low increase in activity; “++++” representing a high increase in activity.
In the case of B1, the “Activity relative to WT” value is on record as “+”.

Regarding B2, the “Activity relative to WT” value is “+”.

Take B3: the “Activity relative to WT” value is “+”.

Turning to B4, the “Activity relative to WT” value is given as “+”.

For B5, the “Activity relative to WT” value was “+”.

With B6, the “Activity relative to WT” value is listed as “+”.

Regarding B7, the “Activity relative to WT” value is reported as “+”.

Regarding B8, the “Activity relative to WT” value was “+”.

On to B9, for which the “Activity relative to WT” value is recorded as “+”.

Consider B10, for which the “Activity relative to WT” value is on record as “+”.

B11: the “Activity relative to WT” value is on record as “+”.
